Test results: publication PMC2853374 (2010)

Key:
[1] = molecular target: OmpR~P (Escherichia coli) (UniProt P0AA16); assay: FRET; conditions: cited from earlier work
OmpR (Escherichia coli) = OmpR (Escherichia coli) (UniProt P0AA16); assay: FRET; conditions: cited from earlier work
OmpR = molecular target: T1, OmpR (Escherichia coli, UniProt P0AA16); assay: fluorescence anisotropy
T1 chain: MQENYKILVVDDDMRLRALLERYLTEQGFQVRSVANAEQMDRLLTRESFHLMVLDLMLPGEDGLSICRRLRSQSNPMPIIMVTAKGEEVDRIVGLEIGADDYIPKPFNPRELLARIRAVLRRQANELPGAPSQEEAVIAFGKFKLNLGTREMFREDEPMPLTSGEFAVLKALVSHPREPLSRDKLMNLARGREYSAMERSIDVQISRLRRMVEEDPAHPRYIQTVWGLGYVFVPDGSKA

Molecule: EnvZ-GFP (from UniProt P0AEJ4)
- Kd [1]: 1600 nM
- Kd (OmpR (Escherichia coli)): 500 nM

B1: EnvZc cytoplasmic domain (protein)
chain: FNHMAAGVKQLADDRTLLMAGVSHDLRTPLTRIRLATEMMSEQDGYLAESINKDIEECNAIIEQFIDYLRTGQ
- Kd (OmpR): 425 nM

B2: EnvZc cytoplasmic domain (protein)
chain: FNHMAAGVKQLADDRTLLMAGVSHDLRTPLTRIRLATEMMSEQDGYLAESINKDIEECNAIIEQFIDYLRTGQ
modifications: ompC DNA (C1-C2-C3)
- Kd (OmpR): 385 nM
